Experiment [1] addresses T1, KW27-20 (human CD39 mutant, C-terminal EGFP) (human, UniProt P49961 1-510).
T1 construct: expressed on HEK293F cells; not shown: C-terminal EGFP fusion (vector pCMV3-GFPSpark)
T1 chain: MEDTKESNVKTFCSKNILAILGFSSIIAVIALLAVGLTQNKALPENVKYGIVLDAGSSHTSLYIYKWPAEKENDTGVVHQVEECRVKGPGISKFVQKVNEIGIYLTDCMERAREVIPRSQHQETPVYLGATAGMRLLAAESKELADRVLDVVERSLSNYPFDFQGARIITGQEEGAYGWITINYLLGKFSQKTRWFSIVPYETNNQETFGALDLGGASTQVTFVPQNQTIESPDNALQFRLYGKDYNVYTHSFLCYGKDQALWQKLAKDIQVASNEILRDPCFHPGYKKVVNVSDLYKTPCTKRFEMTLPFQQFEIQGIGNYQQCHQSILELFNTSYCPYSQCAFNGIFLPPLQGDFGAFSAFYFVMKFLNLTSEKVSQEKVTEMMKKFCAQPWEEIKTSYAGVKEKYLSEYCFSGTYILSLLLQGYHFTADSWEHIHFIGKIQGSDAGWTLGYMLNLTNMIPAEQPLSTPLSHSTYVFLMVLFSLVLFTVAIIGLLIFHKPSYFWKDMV
Briefly: FACS, mutant-EGFP on HEK293F cells. In short, it runs like this:
(§1)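 Relative binding, the ratio of AlexaFluor647 to GFP signal, was read by flow cytometry with labelled anti-hIgG. Antibody ran as an 11-point, 3-fold series starting at 100 nM. Targets were CD39 mutant–GFP fusions expressed transiently in HEK293F cells for 3 days.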

For experiment [2], the target named is T2, mouse CD39 (full length, on CHOK1-mCD39 cells) (mouse, UniProt P55772 1-510).
T2 construct: whole, on cells
T2 sequence (looked up): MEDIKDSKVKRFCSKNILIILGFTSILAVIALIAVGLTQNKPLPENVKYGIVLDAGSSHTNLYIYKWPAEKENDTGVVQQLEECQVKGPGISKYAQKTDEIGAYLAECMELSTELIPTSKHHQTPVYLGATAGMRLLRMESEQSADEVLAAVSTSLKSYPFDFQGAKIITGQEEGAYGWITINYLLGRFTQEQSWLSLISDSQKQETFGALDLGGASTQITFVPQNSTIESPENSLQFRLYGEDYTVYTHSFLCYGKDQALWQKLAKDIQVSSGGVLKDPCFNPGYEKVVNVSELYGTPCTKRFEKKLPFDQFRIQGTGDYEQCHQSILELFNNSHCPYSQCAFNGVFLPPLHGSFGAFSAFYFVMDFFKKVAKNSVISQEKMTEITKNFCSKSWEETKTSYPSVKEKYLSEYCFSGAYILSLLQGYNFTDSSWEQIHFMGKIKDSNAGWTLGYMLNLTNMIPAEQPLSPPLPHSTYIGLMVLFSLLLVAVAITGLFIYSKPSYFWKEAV
Briefly: FACS on CHO-k1/mCD39 cells, MFI [Continued) E].

Experiment [3] deals with T3, ENTPD5 protein (Homo sapiens (Human), UniProt O75356 25-428).
T3 construct: also called CD39L4; ENTPDase 5
T3 sequence: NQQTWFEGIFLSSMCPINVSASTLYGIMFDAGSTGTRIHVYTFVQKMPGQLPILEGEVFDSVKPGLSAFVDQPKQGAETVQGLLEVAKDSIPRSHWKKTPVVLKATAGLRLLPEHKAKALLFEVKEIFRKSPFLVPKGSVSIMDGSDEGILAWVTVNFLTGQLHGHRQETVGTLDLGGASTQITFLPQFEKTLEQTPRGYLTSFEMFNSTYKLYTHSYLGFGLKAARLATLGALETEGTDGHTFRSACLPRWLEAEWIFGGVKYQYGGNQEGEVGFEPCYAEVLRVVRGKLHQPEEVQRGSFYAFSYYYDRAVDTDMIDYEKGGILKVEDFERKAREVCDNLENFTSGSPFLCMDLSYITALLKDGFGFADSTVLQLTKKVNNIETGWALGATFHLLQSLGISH
As to the kind of experiment: ELISA on coated ENTPD5 protein, anti-hIgG-HRP, OD450. How it is done:
Binding specificity of the purified humanized antibody hu23.H5L5 against ENTPDase family members was detected by ELISA assay. Briefly, ENTPD1 (i.e. CD39) and ENTPD 2/3/5/6 proteins were coated on 96-well ELISA plates at 4° C. overnight, next day the ELISA plates were washed and blocked using blocking buffer (1% BSA in PBS with 0.05% Tween20) 200 μL/well for 2 hours. Then hu23.H5L5 gradients were duplicated into the wells and stained with anti-hIgG-HRP. After plate washing, the plates were developed with TMB substrate and stopped by 2N HCl. The OD450 were recorded using plate reader and platted by Graphpad Prism.
Background: ELISA stands for enzyme-linked immunosorbent assay.

The target in experiment [4] is T4, KW27-2 (human CD39 mutant, C-terminal EGFP) (human, UniProt P49961 1-510).
T4 construct: expressed on HEK293F cells; not shown: C-terminal EGFP fusion (vector pCMV3-GFPSpark)
T4 chain: T1 chain with V81S, E82A, R111A, V115A, A138R, A139M, K142E
Briefly: FACS, mutant-EGFP on HEK293F cells. In short, it runs like this: as §1

Positions count from the first letter of the chain named.

B1: hu23.H5L5 (antibody, V domains shown)
VH: QVQLVQSGAEVKKPGASVKVSCKASGYNLKDTFLHWVRQAPGQGLEWMGRIDPANGNIKYDPKFQGRVTITADTSANTAYMELISLRSEDTAVYYCANSPYYYGSGYRIFDVWGQGTTVTVSS
VL: QIVLTQSPATLSLSPGERATLSCSAFSSVNYMHWYQQKPGQAPRLLIYTTSNLASGIPTRFSGSGSGTSYTLTISSLEPEDFAVYYCQQRSTYPFTFGQGTKLEIK
notes: humanized c23
With B1, the results for the binding result in experiment [1], in experiment [2] and in experiment [3] were “no binding (tested: 100 nM highest concentration)”, “no binding” and “no binding (tested: about 66 nM)”, respectively.

B2: c35 (antibody, V domains shown)
VH: EVRLQQSGAELVKPGASVKLSCTASGFNIEDTYVHWMKQRPEQGLEWIGRIDPAIDNSKYDPKFQGKATITAVSSSNTAYLQLSSLTSEDTAVYYCALYDGYNVYAMDYWGQGTSVTVSS
VL: DIVMTQAAFSNPVTLGTSASISCRSSKNLLHSNGITYLYWYLQRPGQSPQLLIYRASTLASGVPNRFSGSESGTDFTLRISRVEAEDVGVYYCAQLLELPHTFGGGTKLEIK
notes: its making is not described; also called chimeric antibody c35
In the case of B2, the binding result in experiment [4] is on record as “no binding (tested: 100 nM highest concentration)”.
